In PMC11283454 (Nature Communications, 2024):

Biological target: the molecule itself
Experiment: MST

B1: human ATE1 isoform 2 (arginyl-tRNA-protein transferase 1), recombinant (enzyme, UniProt O95260-2 1-518, looked up)
chain: MAFWAGGSPSVVDYFPSEDFYRCGYCKNESGSRSNGMWAHSMTVQDYQDLIDRGWRRSGKYVYKPVMNQTCCPQYTIRCRPLQFQPSKSHKKVLKKMLKFLAKGEVPKGSCEDEPMDSTMDDAVAGDFALINKLDIQCDLKTLSDDIKESLESEGKNSKKEEPQELLQSQDFVGEKLGSGEPSHSVKVHTVPKPGKGADLSKPPCRKAKEIRKERKRLKLMQQNPAGELEGFQAQGHPPSLFPPKAKSNQPKSLEDLIFESLPENASHKLEVRLVPVSFEDPEFKSSFSQSFSLYVKYQVAIHQDPPDECGKTEFTRFLCSSPLEAETPPNGPDCGYGSFHQQYWLDGKIIAVGVIDILPNCVSSVYLYYDPDYSFLSLGVYSALREIAFTRQLHEKTSQLSYYYMGFYIHSCPKMKYKGQYRPSDLLCPETYVWVPIEQCLPSLENSKYCRFNQDPEAVDEDRSTEPDRLQVFHKRAIMPYGVYKKQQKDPSEEAAVLQYASLVGQKCSERMLLFRN
modifications: red Tris-NTA dye on the labelled copy in MST
B1 was tested, and the Kd was 8.5 µM.
